Test results: article PMC10101081, “EBR-5, a Novel Variant of Metallo-β-Lactamase EBR from Multidrug-Resistant Empedobacter stercoris” (Microbiology Spectrum, 2023)

Columns and labels:
EBR-5 = target: T1, EBR-5 (Empedobacter stercoris, UniProt A0ABX1WID8); experiment: beta-lactamase inhibition assay; format: biochemical
T1 construct: gene bla; 234-residue precursor; N-terminal signal peptide removed (predicted cleavage between 17 and 18, AFG-QI)

[1] = tested on: CC(=O)OCC1=C(C(=O)O)N2C(=O)[C@@H](NC(=O)Cc3cccs3)[C@H]2SC1; experiment: steady-state hydrolysis kinetics, Michaelis-Menten fit; format: biochemical, Empedobacter stercoris
Source text: (§1) steady-state hydrolysis kinetics, Michaelis-Menten fit on EBR-5

[2] = tested on: CO/N=C(\C(=O)N[C@@H]1C(=O)N2C(C(=O)O)=C(COC(C)=O)CS[C@H]12)c1csc(N)n1; experiment: as above; format: biochemical, Empedobacter stercoris
Source text: as §1

[3] = tested on: CC1(C)S[C@@H]2[C@H](NC(=O)Cc3ccccc3)C(=O)N2[C@H]1C(=O)O; experiment: as above; format: biochemical, Empedobacter stercoris
Source text: as §1

[4] = tested on: CO/N=C(\C(=O)N[C@@H]1C(=O)N2C(C(=O)O)=C(COC(N)=O)CS[C@H]12)c1ccco1; experiment: as above; format: biochemical, Empedobacter stercoris
Source text: as §1

[5] = tested on: O=C(Cc1cccs1)N[C@@H]1C(=O)N2C(C(=O)O)=C(/C=C/c3ccc([N+](=O)[O-])cc3[N+](=O)[O-])CS[C@H]12; experiment: as above; format: biochemical, Empedobacter stercoris
Source text: as §1

[6] = tested on: C[C@@H](O)[C@H]1C(=O)N2C(C(=O)O)=C(S[C@@H]3CN[C@H](CNS(N)(=O)=O)C3)[C@H](C)[C@H]12; experiment: as above; format: biochemical, Empedobacter stercoris
Source text: as §1

[7] = tested on: C[C@@H](O)[C@H]1C(=O)N2C(C(=O)O)=C(S[C@@H]3CN[C@H](C(=O)N(C)C)C3)[C@H](C)[C@H]12; experiment: as above; format: biochemical, Empedobacter stercoris
Source text: as §1

[8] = tested on: C[C@@H](O)[C@H]1C(=O)N2C(C(=O)O)=C(S[C@@H]3CN[C@H](C(=O)Nc4cccc(C(=O)O)c4)C3)[C@H](C)[C@H]12; experiment: as above; format: biochemical, Empedobacter stercoris
Source text: as §1

[9] = tested on: CO[C@@]1(NC(=O)Cc2cccs2)C(=O)N2C(C(=O)O)=C(COC(N)=O)CS[C@@H]21; experiment: as above; format: biochemical, Empedobacter stercoris
Source text: as §1

[10] = tested on: CC1(C)S[C@@H]2[C@H](NC(=O)[C@H](N)c3ccccc3)C(=O)N2[C@H]1C(=O)O; experiment: as above; format: biochemical, Empedobacter stercoris
Source text: as §1

[11] = tested on: CO/N=C(\C(=O)N[C@@H]1C(=O)N2C(C(=O)[O-])=C(C[N+]3(C)CCCC3)CS[C@H]12)c1csc(N)n1; experiment: as above; format: biochemical, Empedobacter stercoris
Source text: as §1

[12] = tested on: CC(C)(O/N=C(\C(=O)N[C@@H]1C(=O)N2C(C(=O)[O-])=C(C[n+]3ccccc3)CS[C@H]12)c1csc(N)n1)C(=O)O; experiment: as above; format: biochemical, Empedobacter stercoris
Source text: as §1

[13] = tested on: C[C@@H](O)[C@H]1C(=O)N2C(C(=O)O)=C(SCCN=CN)C[C@H]12; experiment: as above; format: biochemical, Empedobacter stercoris
Source text: as §1

## O=C(O)CN(CCN(CC(=O)O)CC(=O)O)CC(=O)O [EDTA]
EBR-5
  IC50: 130 µM

## EBR-5 (Empedobacter stercoris)
[1]
  Km: 64 ± 6.4 µM
  kcat: 27 ± 0.8 s⁻¹
  kcat/Km: 419000 M⁻¹ s⁻¹
[2]
  Km: 29 ± 3.9 µM
  kcat: 2.8 ± 0.1 s⁻¹
  kcat/Km: 94000 M⁻¹ s⁻¹
[3]
  Km: 116 ± 16 µM
  kcat: 86 ± 2.8 s⁻¹
  kcat/Km: 745000 M⁻¹ s⁻¹
[4]
  Km: 19 ± 2.3 µM
  kcat: 2.1 ± 0.07 s⁻¹
  kcat/Km: 111000 M⁻¹ s⁻¹
[5]
  Km: 15 ± 1.7 µM
  kcat: 18 ± 0.5 s⁻¹
  kcat/Km: 1.17e+06 M⁻¹ s⁻¹
[6]
  Km: 1,283 ± 161 μM
  kcat: 145 ± 14 s⁻¹
  kcat/Km: 113000 M⁻¹ s⁻¹
[7]
  Km: 626 ± 61 µM
  kcat: 147 ± 8.3 s⁻¹
  kcat/Km: 236000 M⁻¹ s⁻¹
[8]
  Km: 1,507 ± 175 μM
  kcat: 151 ± 13 s⁻¹
  kcat/Km: 100000 M⁻¹ s⁻¹
[9]
  Km: 182 ± 12 µM
  kcat: 1.5 ± 0.04 s⁻¹
  kcat/Km: 8500 M⁻¹ s⁻¹
[10]
  Km: 207 ± 21 µM
  kcat: 118 ± 3.3 s⁻¹
  kcat/Km: 572000 M⁻¹ s⁻¹
[11]
  Km: 1,058 ± 58 μM
  kcat: 0.1 ± 0.01 s⁻¹
  kcat/Km: 100 M⁻¹ s⁻¹
[12]
  Km: 567 ± 76 µM
  kcat: 0.9 ± 0.09 s⁻¹
  kcat/Km: 1600 M⁻¹ s⁻¹
[13]
  Km: 1,218 ± 147 μM
  kcat: 124 ± 10 s⁻¹
  kcat/Km: 102000 M⁻¹ s⁻¹

## O=C(O)[C@H]1/C(=C/CO)O[C@@H]2CC(=O)N21 [clavulanic acid]
EBR-5
  IC50: > 2000 µM
